# T1: recombinant DcR3-Ig (human, UniProt O95407 30-300)
# T1 sequence (looked up): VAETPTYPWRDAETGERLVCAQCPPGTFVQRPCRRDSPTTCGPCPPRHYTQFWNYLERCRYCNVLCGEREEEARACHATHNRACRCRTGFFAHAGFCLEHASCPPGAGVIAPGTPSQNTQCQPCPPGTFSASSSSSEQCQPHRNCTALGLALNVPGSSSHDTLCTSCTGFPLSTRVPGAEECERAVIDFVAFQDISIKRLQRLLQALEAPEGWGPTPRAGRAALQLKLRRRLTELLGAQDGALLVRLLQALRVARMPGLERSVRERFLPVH
# Tests used:
# [1] = target: T1, recombinant DcR3-Ig; test: SPR
# [2] = target: recombinant LTβR-Ig (UniProt P36941 31-227); test: SPR
# [3] = target: the molecule itself; test: crystal structure
# Chain of recombinant LTβR-Ig (P36941 31-227): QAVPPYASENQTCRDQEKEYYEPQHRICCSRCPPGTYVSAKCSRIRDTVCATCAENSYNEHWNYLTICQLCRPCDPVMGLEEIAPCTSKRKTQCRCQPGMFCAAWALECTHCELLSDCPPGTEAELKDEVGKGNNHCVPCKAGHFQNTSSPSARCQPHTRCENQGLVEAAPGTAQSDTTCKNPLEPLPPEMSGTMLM
Binder,Kd [1],Kd [2],stoichiometry N [3]
"Soluble LIGHT (residues L83-V240), wild type (ligand, human, UniProt O43557 83-240, looked up) LIQERRSHEVNPAAHLTGANSSLTGSGGPLLWETQLGLAFLRGLSYHDGALVVTKAGYYYIYSKVQLGGVGCPLGLASTITHGLYKRTPRYPEELELLVSQQSPCGRATSSSRVWWDSSFLGGVVHLEAGEKVVVRVLDERLVRLRDGTRSYFGAFMV",16.7 ± 0.3 nM,11.2 ± 0.6 nM,3
"LIGHT mutant 1 (GH loop 226-231 replaced by the TL1A loop) (ligand, human) LIQERRSHEVNPAAHLTGANSSLTGSGGPLLWETQLGLAFLRGLSYHDGALVVTKAGYYYIYSKVQLGGVGCPLGLASTITHGLYKRTPRYPEELELLVSQQSPCGRATSSSRVWWDSSFLGGVVHLEAGEKVVVRVLDERLVDYTKEDRSYFGAFMV",36 ± 1.8 nM,21 ± 3.3 nM,
"LIGHT mutant 2 (EF loop 195-198 replaced by the TL1A loop) (ligand, human) LIQERRSHEVNPAAHLTGANSSLTGSGGPLLWETQLGLAFLRGLSYHDGALVVTKAGYYYIYSKVQLGGVGCPLGLASTITHGLYKRTPRYPEELELLVSQQSPCGRATSSSSNWFDSSFLGGVVHLEAGEKVVVRVLDERLVRLRDGTRSYFGAFMV",153 ± 54 nM,17.2 ± 14 nM,
